Positions count from the first letter of the chain named. Numbers in names are those of the source.
B1: transglutaminase derived from Streptoverticillium mobaraense (MTG), wild type, P81453 77-407 (enzyme)
chain: DSDDRVTPPAEPLDRMPDPYRPSYGRAETVVNNYIRKWQQVYSHRDGRKQQMTEEQREWLSYGCVGVTWVNSGQYPTNRLAFASFDEDRFKNELKNGRPRSGETRAEFEGRVAKESFDEEKGFQRAREVASVMNRALENAHDESAYLDNLKKELANGNDALRNEDARSPFYSALRNTPSFKERNGGNHDPSRMKAVIYSKHFWSGQDRSSSADKRKYGDPDAFRPAPGTGLVDMSRDRNIPRSPTSPGEGFVNFDYGWFGAQTEADADKTVWTHGNHYHAPNGSLGAMHVYESKFRNWSEGYSDFDRGAYVITFIPKSWNTAPDKVKQGWP
B2: Ser-type MTG (mutant in which Asp1 has been removed, starts with Ser2), P81453 78-407 (enzyme)
chain: SDDRVTPPAEPLDRMPDPYRPSYGRAETVVNNYIRKWQQVYSHRDGRKQQMTEEQREWLSYGCVGVTWVNSGQYPTNRLAFASFDEDRFKNELKNGRPRSGETRAEFEGRVAKESFDEEKGFQRAREVASVMNRALENAHDESAYLDNLKKELANGNDALRNEDARSPFYSALRNTPSFKERNGGNHDPSRMKAVIYSKHFWSGQDRSSSADKRKYGDPDAFRPAPGTGLVDMSRDRNIPRSPTSPGEGFVNFDYGWFGAQTEADADKTVWTHGNHYHAPNGSLGAMHVYESKFRNWSEGYSDFDRGAYVITFIPKSWNTAPDKVKQGWP
B3: S2Y mutant MTG (Ser2 replaced with Tyr, in Met type MTG), P81453 79-407 (enzyme)
chain: MDYDDRVTPPAEPLDRMPDPYRPSYGRAETVVNNYIRKWQQVYSHRDGRKQQMTEEQREWLSYGCVGVTWVNSGQYPTNRLAFASFDEDRFKNELKNGRPRSGETRAEFEGRVAKESFDEEKGFQRAREVASVMNRALENAHDESAYLDNLKKELANGNDALRNEDARSPFYSALRNTPSFKERNGGNHDPSRMKAVIYSKHFWSGQDRSSSADKRKYGDPDAFRPAPGTGLVDMSRDRNIPRSPTSPGEGFVNFDYGWFGAQTEADADKTVWTHGNHYHAPNGSLGAMHVYESKFRNWSEGYSDFDRGAYVITFIPKSWNTAPDKVKQGWP
B4: S2R mutant MTG (Ser2 replaced with Arg, in Met type MTG), P81453 79-407 (enzyme)
chain: B3 chain with Y3R
B5: S2D mutant MTG (Ser2 replaced with Asp, in Met type MTG), P81453 79-407 (enzyme)
chain: B3 chain with Y3D

Molecular target: casein
Test: cell-based or functional assay

| Binder | time required for the gelation of casein [min] |
| --- | --- |
| B1 | 90 |
| B2 | 85 |
| B3 | 100 |
| B4 | 85 |
| B5 | 95 |

Reference: US20040002144A1
